T1: RMB1 MBD K50T (Arabidopsis thaliana, UniProt F4I209 1-81, K50T)
T1 sequence: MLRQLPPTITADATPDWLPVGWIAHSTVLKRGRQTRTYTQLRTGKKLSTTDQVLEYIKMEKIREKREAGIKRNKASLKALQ

T2: RMB1 MBD (Arabidopsis thaliana, UniProt F4I209 1-81)
T2 sequence: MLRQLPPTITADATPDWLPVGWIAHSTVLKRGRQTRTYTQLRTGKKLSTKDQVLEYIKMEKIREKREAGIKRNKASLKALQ

T3: RMB1 MBD T49A (Arabidopsis thaliana, UniProt F4I209 1-81, T49A)
T3 sequence: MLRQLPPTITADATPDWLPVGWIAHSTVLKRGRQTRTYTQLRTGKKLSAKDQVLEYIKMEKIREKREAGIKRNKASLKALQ

T4: RMB1 MBD W22G (Arabidopsis thaliana, UniProt F4I209 1-81, W22G)
T4 sequence: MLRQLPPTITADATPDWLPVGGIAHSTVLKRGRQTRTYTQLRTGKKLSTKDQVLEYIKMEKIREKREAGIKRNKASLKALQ

T5: RMB1 MBD Y38F (Arabidopsis thaliana, UniProt F4I209 1-81, Y38F)
T5 sequence: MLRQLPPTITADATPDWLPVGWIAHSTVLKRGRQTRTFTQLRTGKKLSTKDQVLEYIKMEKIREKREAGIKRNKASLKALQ


Assays:
Experiment in all cases: MST
RMB1 MBD K50T = molecular target: T1, RMB1 MBD K50T
RMB1 MBD = molecular target: T2, RMB1 MBD
RMB1 MBD T49A = molecular target: T3, RMB1 MBD T49A
RMB1 MBD W22G = molecular target: T4, RMB1 MBD W22G
RMB1 MBD Y38F = molecular target: T5, RMB1 MBD Y38F

Binder	binding result (RMB1 MBD K50T)	Kd (RMB1 MBD)	Kd (RMB1 MBD T49A)	Kd (RMB1 MBD W22G)	Kd (RMB1 MBD Y38F)
AT5G39160 mCG (dsDNA, 5mC at forward 8 and 48; reverse strand line not in material, its methylation unknown) DNA 1: TTTGGTACGGACTTTTAGTTACAAGAGAGCATTTAAACAAAAATGACCGGTAGATGGAA DNA 2: TTCCATCTACCGGTCATTTTTGTTTAAATGCTCTCTTGTAACTAAAAGTCCGTACCAAA	no binding	1.77 ± 0.7 µM	3.58 ± 2.07 µM	13.3 ± 4.67 µM	2.15 ± 0.75 µM
AT5G39160 mCHG (dsDNA, 5mC in CHG context; positions not in material (base sequence taken from Um probe)) DNA 1: TTTGGTACGGACTTTTAGTTACAAGAGAGCATTTAAACAAAAATGACCGGTAGATGGAA DNA 2: TTCCATCTACCGGTCATTTTTGTTTAAATGCTCTCTTGTAACTAAAAGTCCGTACCAAA	no binding	3.34 ± 0.27 µM	4.11 ± 2.92 µM		5.16 ± 2 µM
AT5G39160 mCHH (dsDNA, 5mC at forward 12, 22, 30, 38; reverse unmethylated) DNA 1: TTTGGTACGGACTTTTAGTTACAAGAGAGCATTTAAACAAAAATGACCGGTAGATGGAA DNA 2: TTCCATCTACCGGTCATTTTTGTTTAAATGCTCTCTTGTAACTAAAAGTCCGTACCAAA		2.86 ± 1.21 µM			

Source: paper doi:10.1101/2020.02.21.958371
